We go through two molecules from patent US20260085128A1 (BIOLEGEND, published 2026).

The target in assay [1] is T1, human CD157 (human, UniProt Q10588 33-293).
T1 construct: Endogenous CD157 on human U-937 cells and on human blood monocytes and granulocytes; also called BST-1; bone marrow stromal cell antigen 1
T1 sequence: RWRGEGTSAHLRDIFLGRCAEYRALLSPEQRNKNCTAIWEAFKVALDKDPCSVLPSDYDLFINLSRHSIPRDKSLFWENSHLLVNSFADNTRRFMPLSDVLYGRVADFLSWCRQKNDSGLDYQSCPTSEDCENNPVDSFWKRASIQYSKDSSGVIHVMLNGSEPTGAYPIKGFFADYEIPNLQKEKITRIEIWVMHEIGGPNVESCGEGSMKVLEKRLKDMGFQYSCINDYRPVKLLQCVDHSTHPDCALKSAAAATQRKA
The experiment in a line: flow cytometry, summary sentence of Example 3. A general note: A flow cytometer gives signals particle by particle.

The target of assay [2] is T1, human CD157. The experiment in a line: flow cytometry on U-937 cells, anti-rat IgG-PE secondary. The procedure: U-937 cells were grown in RPMI media supplemented with 10% FBS in T75 culture flask, to about 80% confluency. Various concentrations of exemplary generated anti-CD157 antibodies were added, including 2, 1, 0.5, 0.25, 0.125 and 0.06 μg, and allowed to incubate for 15 minutes. Cells were then washed twice with FACS wash buffer and stained with anti-rat IgG-PE secondary antibody for 15 minutes. Cells were washed with FACS buffer and analyzed on a BD LSRII flow cytometer.

B1: anti-CD157 monoclonal antibody AB3 (antibody, V domains shown)
VH: EVHLVESGGGLVQPGRSLKLSCAASGFTFSNYDMAWIRQAPAKGLEWVASISIRGGSTYYRDSVKGRFTVSRDNAKSTLYLQMDSLRSEDTATYYCVRGTDYYYDYFDYWGQGVMVTVSS
VL: NIQMTQSPSLLSASVGDRVTLSCKAGRNINSYLAWYQQMLGEAPKLLIYNANSLQTGIPSRFSGSGSGTDYTLTISSLQPEDVATYFCQQYNSWTNTFGAGTKLELK
notes: Hybridoma-derived monoclonal antibody; It was detected with an anti-rat IgG-PE secondary antibody; also called antibody 3; clone 3
With B1, in the assay with human CD157 [1], the binding result is “binds”.

B2: anti-CD157 monoclonal antibody AB1 (antibody, V domains shown)
VH: QVQLKESGPGLVQPSQTLSLTCTVSGFSLTSYHVSWVRQPPGKGLEWMGIIWTGGSTAYNSLLKSRLSISRDTSKSQVFLKMNSLQTEDTATYYCARSITPTFFDYWGQGVMVTVSS
VL: QFVLTQPNSVSTNLGSTVKLSCKRSTGNFGNNYVNWYQQHEGRSPTTMIYRDDKRPDGVPDRFSGSIDRSSNSALLTISNVQTEDEADYFCQSYSSGIVFGGGTKLTVL
notes: Hybridoma-derived monoclonal antibody; It was detected with an anti-rat IgG-PE secondary antibody; also called antibody 1; clone 1
As to B2, the binding result with human CD157 [2] is given as “binds”.
